Assay results taken from paper PMC12263829 (Nature Communications, 2025).

B1: EGFP-∆63EWSR1::FLI1 (domain or fragment, human, UniProt Q01844 64-264, looked up)
chain: TAYATSYGQPPTGYTTPTAPQAYSQPVQGYGTGAYDTTTATVTTTQASYAAQSAYGTQPAYPAYGQQPAATAPTRPQDGNKPTETSQPQSSTGGYNQPSLGYGQSNYSYPQVPGSYPMQPVTAPPSYPPTSYSSTQPTSYDQSSYSQQNTYGQPSSYGQQSSYGQQSSYGQQPPTSYPPQTGSYSQAPSQYSQQSSSYGQQPSYDSVRRGAWGNNMNSGLNKSPPLGGAQTISKNTEQRPQPDPYQILGPTSSRLANPGSGQIQLWQFLLELLSDSANASCITWEGTNGEFKMTDPDEVARRWGERKSKPNMNYDKLSRALRYYYDKNIMTKVHGKRYAYKFDFHGIAQALQPHPTESSMYKYPSDISYMPSYHAHQQKVNFVPPHPSSMPVTSSSFFGAASQYWTSPTGGIYPNPNVPRHPNTHVPSHLGSYY
B2: EGFP-EWSR1::FLI1 (natural protein, human, UniProt Q01844 1-264, looked up)
chain: MASTDYSTYSQAAAQQGYSAYTAQPTQGYAQTTQAYGQQSYGTYGQPTDVSYTQAQTTATYGQTAYATSYGQPPTGYTTPTAPQAYSQPVQGYGTGAYDTTTATVTTTQASYAAQSAYGTQPAYPAYGQQPAATAPTRPQDGNKPTETSQPQSSTGGYNQPSLGYGQSNYSYPQVPGSYPMQPVTAPPSYPPTSYSSTQPTSYDQSSYSQQNTYGQPSSYGQQSSYGQQSSYGQQPPTSYPPQTGSYSQAPSQYSQQSSSYGQQPSYDSVRRGAWGNNMNSGLNKSPPLGGAQTISKNTEQRPQPDPYQILGPTSSRLANPGSGQIQLWQFLLELLSDSANASCITWEGTNGEFKMTDPDEVARRWGERKSKPNMNYDKLSRALRYYYDKNIMTKVHGKRYAYKFDFHGIAQALQPHPTESSMYKYPSDISYMPSYHAHQQKVNFVPPHPSSMPVTSSSFFGAASQYWTSPTGGIYPNPNVPRHPNTHVPSHLGSYY

Biological target: the molecule itself
Experiment: Number and Brightness

Protein | stoichiometry N [molecules]
B1 | 3 to 4
B2 | 3 to 4
